Results: the Human Domainome abundance scans (Beltran et al. 2025)

B1: Gamma-crystallin S, residues 96 to 176; numbered along this chain, P22914 (parent)
chain: IQIFEKGDFSGQMYETTEDCPSIMEQFHMREIHSCKVLEGVWIFYELPNYRGRQYLLDKKEYRKPIDWGAASPAVQSFRRI

Variants of: B1
Assay: abundance fitness (aPCA) (normalised: wild type 0, dead -1); higher = more abundant; growth selection in yeast, the domain comes from the species named
Settings: Homo sapiens

Abundance fitness of substitutions, site by site:
E5: W 0.006 | Y 0.083
K6: A 0.007 | D 0.015 | E 0 | F 0.099 | G 0.004 | H -0.02 | I -0.009 | L -0.058 | M 0.049 | P -1.1 | Q -0.056 | R -0.047 | S 0.085 | T 0.007 | V 0.033 | Y -0.033
G7: A 0.043 | C -0.367 | D -0.019 | E -0.027 | F 0.084 | H 0.013 | I 0.034 | K 0.079 | M 0.012 | N -0.16 | P 0.007 | Q -0.099 | R 0.052 | S -0.01 | T -0.03 | V -0.012 | W -0.041 | Y -0.025
D8: A 0.038 | C 0.111 | F 0.066 | H 0.088 | I 0.025 | K 0.162 | L 0.074 | N 0.074 | P -0.012 | R 0.081 | S 0.093 | T 0.063 | V 0.039 | Y 0.078
F9: A -0.064 | C 0.054 | D -0.409 | E -0.18 | G -0.035 | H 0.067 | I -0.009 | K -0.095 | M 0.061 | N 0.068 | P -0.481 | Q 0.027 | R -0.126 | S -0.068 | T -0.051 | V -0.12 | W -0.018 | Y -0.008
S10: A -0.039 | C -0.081 | D -0.12 | E 0.013 | F -0.091 | G -0.004 | I -0.059 | K 0.006 | L 0.005 | M -0.033 | N 0.069 | P -0.733 | Q 0.022 | R -0.018 | T -0.157 | V -0.003 | W -0.047 | Y 0.068
G11: A 0.041 | C 0.066 | D -0.009 | E -0.01 | F -0.294 | H -0.021 | I -0.372 | K 0.105 | L -0.137 | M 0.062 | N -0.002 | P 0.012 | Q -0.003 | R -0.135 | S 0.06 | V -0.208 | W -0.171 | Y -0.094
Q12: A -0.02 | C -0.093 | D 0.012 | E -0.053 | F -0.053 | G 0.033 | H -0.04 | L -0.014 | M 0.001 | N 0.09 | P 0.013 | R 0.025 | S 0.023 | T 0.053 | V 0.005 | Y 0.035
M13: A -0.011 | C -0.012 | D -0.032 | E 0.028 | F -0.04 | G -0.041 | H 0.005 | I 0.062 | K -0.032 | N -0.083 | P 0.027 | Q 0.019 | R -0.01 | S -0.023 | T 0.027 | V -0.017 | W -0.048 | Y 0.094
Y14: A 0.049 | C -0.027 | D -0.01 | E 0.113 | F -0.011 | G 0.028 | H 0.034 | I -0.003 | K -0.009 | M -0.166 | N 0.063 | P -0.993 | Q 0.128 | R -0.004 | S 0.07 | T 0.086 | V -0.002 | W -0.056
E15: A -0.011 | C -0.137 | D -0.046 | F -0.05 | G -0.044 | H -0.095 | I -0.183 | K 0.147 | L -0.078 | M -0.18 | P -0.038 | Q 0.018 | R -0.057 | T -0.064 | V -0.013 | W -0.062 | Y 0.115
T16: A 0.026 | C 0.012 | D -0.002 | E 0.046 | F 0.148 | G 0.006 | H -0.003 | I -0.055 | K -0.129 | L 0.049 | M 0.061 | N 0.024 | P 0.102 | Q -0.108 | R 0.003 | V -0.035 | W 0.078 | Y 0.018
T17: A 0.022 | C 0.027 | D -0.051 | E -0.069 | F -0.007 | G -0.013 | I 0.037 | K 0.074 | L 0.022 | M -0.059 | N -0.02 | P 0.075 | Q -0.005 | R -0.012 | S -0.068 | V -0.031 | W 0.021 | Y -0.352
E18: A -0.087 | C 0.006 | D -0.153 | F -0.007 | G 0.038 | H -0.039 | I 0.079 | K 0.017 | L -0.021 | M -0.066 | N 0.072 | P -0.067 | Q 0.009 | R -0.028 | S 0.016 | T -0.046 | V 0.002 | W 0.014 | Y -0.032
D19: A -0.005 | C -0.003 | E -0.018 | F -0.116 | G -0.035 | H 0.143 | I -0.144 | K -0.114 | L -0.124 | M -0.097 | N -0.193 | P -0.237 | Q 0.181 | R -0.015 | T -0.059 | V -0.038 | W -0.024 | Y 0.009
C20: A -0.004 | D -0.754 | E -0.144 | F -0.222 | G -0.352 | H -0.398 | I 0.023 | K -0.027 | L -0.142 | M -0.008 | N -0.134 | P -1.04 | Q -0.002 | R -0.235 | S -0.054 | T -0.086 | V -0.087 | W -0.065 | Y -0.035
P21: A -0.043 | C -0.011 | D -0.063 | E -0.028 | F 0.075 | G 0.004 | I -0.053 | K -0.016 | L -0.002 | M -0.057 | N -0.015 | Q 0.023 | R -0.106 | S 0.019 | T -0.012 | V 0.009 | W 0.037 | Y -0.109
S22: A 0.023 | C 0.02 | E -0.034 | F -0.035 | G -0.015 | H -0.01 | I 0.033 | K 0.062 | L -0.022 | M -0.094 | N 0.001 | P -0.907 | Q -0.019 | R -0.016 | T -0.08 | V 0.017 | W 0.082 | Y 0.142
I23: A 0 | C -0.031 | E -0.945 | F 0.001 | G -0.142 | H -0.201 | K -0.588 | L -0.152 | M -0.041 | N -0.041 | P 0.02 | Q -0.398 | R -0.28 | S -0.038 | T -0.033 | V 0.004 | W 0.014 | Y 0.024
M24: A -0.054 | C -0.016 | D -0.11 | E -0.052 | H -0.099 | I -0.017 | K 0.335 | L 0.002 | P -0.099 | Q -0.097 | R -0.005 | S -0.088 | T 0.007 | W 0.115 | Y -0.095
